The source of these data is patent publication US20260028608A1.

Read-outs that look alike come from different tables or passages of the source.

Assay in all cases: cell-based or functional assay
Experiment [1] concerns the target XGEVA (Amgen), human IgG2.
Experiment [2] addresses XGEVA (Amgen), human IgG2. The source holds these as a separate data set.
The target in experiment [3] is human IgG4 from Abcam (ab90286 Lot #GR3180469) (human).
For experiment [4], the target named is human IgG3 from Sigma (15654 Lot #SLBW0899) (human).
Experiment [5] addresses Humira (Abbvie), human IgG1.
Experiment [6] has as its target Humira (Abbvie), human IgG1. This is another data set of the same source.

In experiment [1], “IdeS (Immunoglobulin G-degrading enzyme of S. pyogenes), control polypeptide pCART124” displayed a Conc. of enzyme for cleavage of 1st IgG2 heavy chain, IgG to scIgG (SDS-PAGE) of 10 ng/mL and a Conc. of enzyme for cleavage of 2nd IgG2 heavy chain, scIgG to F(ab)2 (SDS-PAGE) of 400 ng/mL. Besides, in experiment [2], the Conc. of enzyme for cleavage of 1st IgG2 heavy chain, IgG to scIgG (SDS-PAGE) was determined as 40 ng/mL; the Conc. of enzyme for cleavage of 2nd IgG2 heavy chain, scIgG to F(ab)2 (SDS-PAGE) was 1100 ng/mL; the IgG2 EC50 F(ab')2 (SDS-PAGE, visual estimate) is 0.12 µg/mL; the IgG2 EC50 scIgG (SDS-PAGE, visual estimate) is 0.003 µg/mL. In experiment [3], the IgG4 EC50 F(ab')2 (SDS-PAGE, visual estimate) was 0.18 µg/mL and the IgG4 EC50 scIgG (SDS-PAGE, visual estimate) is 0.002 µg/mL. In experiment [4], the IgG3 EC50 F(ab')2 (SDS-PAGE, visual estimate) is 0.015 µg/mL and the IgG3 EC50 scIgG (SDS-PAGE, visual estimate) was 0.0022 µg/mL. Further, in experiment [5], the Approximate EC50 value, i.e. equal amounts of scIgG and F(ab')2 (SDS-PAGE) was determined as 0.12 µg/mL; the Conc. of enzyme for cleavage of 1st IgG1 heavy chain, IgG to scIgG (SDS-PAGE) came out at 4.5 ng/mL; the Conc. of enzyme for cleavage of 2nd IgG1 heavy chain, scIgG to F(ab')2 (SDS-PAGE) turned out to be 400 ng/mL; the IgG1 EC50 F(ab')2 (SDS-PAGE, visual estimate) is 0.08 µg/mL. In experiment [5], the IgG1 EC50 scIgG (SDS-PAGE, visual estimate) was 0.001 µg/mL and the fold of EC50 F(ab')2 for IgG1, IdeS against N240 was found to be 5 fold. Moreover, in experiment [6], the Conc. of enzyme for cleavage of 1st IgG1 heavy chain, IgG to scIgG (SDS-PAGE) came to 1.5 ng/mL and the Conc. of enzyme for cleavage of 2nd IgG1 heavy chain, scIgG to F(ab')2 (SDS-PAGE) was determined as 120 ng/mL.
